Two substances from US20240368664A1, “LIVE YEAST BIOSENSORS AND METHODS OF USE THEREOF” (priority 2021, published 2024) can be followed below.

Assay [1] addresses T1, Schizosaccharomyces japonicus pheromone GPCR SjSte2 (Schizosaccharomyces japonicus).
T1 sequence: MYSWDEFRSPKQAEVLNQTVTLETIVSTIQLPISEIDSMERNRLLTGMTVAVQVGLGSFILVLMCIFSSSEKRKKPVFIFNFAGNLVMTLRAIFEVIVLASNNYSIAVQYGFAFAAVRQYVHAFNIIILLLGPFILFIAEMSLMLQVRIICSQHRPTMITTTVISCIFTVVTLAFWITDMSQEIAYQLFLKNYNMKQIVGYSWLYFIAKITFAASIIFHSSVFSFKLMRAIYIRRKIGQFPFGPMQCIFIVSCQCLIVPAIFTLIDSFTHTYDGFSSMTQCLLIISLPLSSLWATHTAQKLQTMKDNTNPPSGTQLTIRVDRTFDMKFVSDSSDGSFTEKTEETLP
The assay is described as follows: cell-based or functional assay.

For assay [2], the target named is T2, Scheffersomyces stipitis pheromone GPCR SsSte2 (Scheffersomyces stipitis).
T2 sequence: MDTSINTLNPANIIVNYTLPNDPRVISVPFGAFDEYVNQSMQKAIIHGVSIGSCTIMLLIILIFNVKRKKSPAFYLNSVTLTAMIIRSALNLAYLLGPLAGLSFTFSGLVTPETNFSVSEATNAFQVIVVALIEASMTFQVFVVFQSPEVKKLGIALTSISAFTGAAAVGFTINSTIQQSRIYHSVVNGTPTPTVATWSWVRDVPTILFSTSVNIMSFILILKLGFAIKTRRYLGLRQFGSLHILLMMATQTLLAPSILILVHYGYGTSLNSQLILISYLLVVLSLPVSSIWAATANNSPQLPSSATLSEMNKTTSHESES
The assay is described as follows: cell-based or functional assay.

Regarding S. japonicus pheromone peptide (SjPep), the apparent EC50, ymTurquoise2, strain co-expressing SjSxa2 in assay [1] amounted to 100000 nM.
Consider “Scheffersomyces stipitis cognate peptide (SsPep)”, for which, in assay [2], the EC50, mCherry, yMJ194 amounted to 12 nM; the EC50, mCherry, yTC453 stood at 7 nM; the maximal activation, mCherry, yMJ194 was 320 A.U; the maximal activation, mCherry, yTC453 is 5300 A.U.
